Values quoted from earlier work, collected in paper PMC4815344.

Target: soluble epoxide hydrolase (Homo sapiens) (UniProt P34913)

Sequence of soluble epoxide hydrolase (P34913 whole entry): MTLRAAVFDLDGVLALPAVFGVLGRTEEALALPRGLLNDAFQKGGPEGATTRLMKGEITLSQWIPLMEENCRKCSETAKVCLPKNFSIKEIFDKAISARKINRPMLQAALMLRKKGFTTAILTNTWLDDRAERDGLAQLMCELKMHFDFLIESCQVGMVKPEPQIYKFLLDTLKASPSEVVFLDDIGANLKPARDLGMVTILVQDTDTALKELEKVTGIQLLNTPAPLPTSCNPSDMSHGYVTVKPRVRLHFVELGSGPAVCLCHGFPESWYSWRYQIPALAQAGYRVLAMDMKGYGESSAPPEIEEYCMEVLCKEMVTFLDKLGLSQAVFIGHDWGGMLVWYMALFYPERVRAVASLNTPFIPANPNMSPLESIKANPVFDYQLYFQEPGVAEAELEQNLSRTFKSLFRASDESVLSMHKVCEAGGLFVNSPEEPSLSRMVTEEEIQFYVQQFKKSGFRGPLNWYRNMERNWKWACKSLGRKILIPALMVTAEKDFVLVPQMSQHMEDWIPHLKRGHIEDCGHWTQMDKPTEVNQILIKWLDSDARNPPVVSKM

Kd: 5 pM
Substance: soluble epoxide hydrolase (from UniProt P34913)
